In the supplement of paper PMC10724198:
± gives the standard deviation of the averaged measurements.

What follows are sequences tested on Saccharomyces cerevisiae (assay: protein stability index of tFT-peptide fusion (C-terminal peptide) (PSI (0-1 scale)); higher = more stable (slower turnover)). Conditions: genetic background: wild type; temperature: 30 C.
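Further: PSI is a weighted mean of sequencing reads over stability bins, variants kept only with over 10 reads, mCherry proximal and sfGFP distal, peptide attached via GGGS linker.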

Sequence | protein stability index
VPAPLPRTSPPS | 0.673 ± 0.053
VSVGLGRCSIFW | 0.7217 ± 0.0048
IRHSTRTRPSSV | 0.745 ± 0.03
SHVMLCLHFLFR | 0.498 ± 0.018
RRARSAGADPRP | 0.684 ± 0.02
PRLPYPSLFPCT | 0.678 ± 0.056
GAGLSLALSGPL | 0.607 ± 0.0094
VGGWGERGRGGS | 0.696 ± 0.015
ADMLETFSVHLG | 0.666 ± 0.011
LLGWRFFYLGVG | 0.688 ± 0.051
GSVLFPLPFRPF | 0.64 ± 0.11
RMSHFNTDSVHF | 0.761 ± 0.019
YSSALLHPTSPV | 0.655 ± 0.064
WAPFGKMVGGPW | 0.785 ± 0.027
RLRESMYPSSEE | 0.717 ± 0.0085
NKRKIKKKKKRG | 0.651 ± 0.088
GQVACLVSREYT | 0.69 ± 0.018
FPQHPLFDPPAF | 0.793 ± 0.013
LELTSDWRAYVY | 0.643 ± 0.052
KYKKNNNKKQNQ | 0.704 ± 0.097
LLNTSPPRSVLH | 0.653 ± 0.01

Sequence | protein stability index
SGLFFRWCRLSW | 0.638 ± 0.031
HRLWAGWGLEQC | 0.712 ± 0.013
IHEGIKNENFKR | 0.71 ± 0.0053
PRAYPSNLPPSP | 0.721 ± 0.037
GPPPAWALCYPL | 0.601 ± 0.023
DKNVREGDRETR | 0.685 ± 0.017
GRWRVLREVGAS | 0.664 ± 0.01
WPPPPPYSPFSL | 0.737 ± 0.02
KYHIKKPSTLEI | 0.683 ± 0.01
RIVQQATHVREH | 0.787 ± 0.011
PPRSPRPPPSRP | 0.72 ± 0.1
EARLGGESSAWG | 0.655 ± 0.053
KIDKLRKRQRKK | 0.664 ± 0.017
SLEQRPLQRPPS | 0.6941 ± 0.0063
EWSGWVGKCGRG | 0.6644 ± 0.0059
IFMGSPYPRLPT | 0.633 ± 0.018
FCCVETRRCVRL | 0.717 ± 0.16
CGAGIYTRCTGR | 0.6613 ± 0.001
PPPRPPLPPPLP | 0.692 ± 0.032
FVFDVTAYRGLL | 0.738 ± 0.03
PTPAPLPPPSPP | 0.592 ± 0.024

Sequence | protein stability index
EGGIYLQMCVGS | 0.616 ± 0.035
GVRPWGGMCSCL | 0.7046 ± 0.0024
LRSLRFALFPPA | 0.642 ± 0.083
KANIKGIKTRIT | 0.642 ± 0.076
SFERPAQAHALA | 0.698 ± 0.012
VVVVRCGWGGCG | 0.592 ± 0.012
GFRGGAYRWCIS | 0.701 ± 0.03
SSLPPLRPFSPS | 0.726 ± 0.075
SLSVRTIFTSRS | 0.71 ± 0.071
LVKVGCVGLIKC | 0.545 ± 0.0066
DHSWPSTDRVLL | 0.676 ± 0.0096
PPPHSPVPPSQS | 0.68 ± 0.022
VREVTIGGGLGE | 0.707 ± 0.0087
AVCSLLVYAPDR | 0.652 ± 0.059
RPSLPPSPPPPP | 0.848 ± 0.22
WVPISPFLTPSH | 0.716 ± 0.025
PFIPPPRFPPPV | 0.835 ± 0.074
TAATLVYKQNQK | 0.66 ± 0.12
HRDPRFSRCSTC | 0.69 ± 0.034
NPRGAKRRNSRK | 0.663 ± 0.058
RTPMAIDALCGS | 0.637 ± 0.045

Sequence | protein stability index
KKKKKSEIPKIT | 0.686 ± 0.084
KVDGTIDSRVMS | 0.683 ± 0.089
GPPPLRLWPLPV | 0.618 ± 0.079
VHSMSRTFARPV | 0.683 ± 0.051
TKEEDKNEGRRR | 0.662 ± 0.055
PPRRSSLSPPLA | 0.6562 ± 0.0027
GRLRLDAAGCMW | 0.675 ± 0.048
SSFGPSFLTLFF | 0.70403 ± 0.00044
NAVCCGKWRGGS | 0.714 ± 0.11
WFFRSVVPRCGG | 0.63 ± 0.038
VHGGKREGGGEG | 0.667 ± 0.039
DSSEGRVRIRIR | 0.714 ± 0.063
QPTRADLEAPPR | 0.6858 ± 0.0065
KKENKERNNEYE | 0.708 ± 0.081
ELNSGLLRSKET | 0.661 ± 0.0095
GGAVRSGRLFCC | 0.648 ± 0.022
RLVISPRSRPCP | 0.725 ± 0.069
NEHTTLKITKNK | 0.6818 ± 0.003
